System: plasma proteins
Test: Plasma proteins modulated between baseline and day 28 in responders (CR, VGPR, PR; n = 19), Example 6 (Table 13)
Format: in vivo, human
Details: plasma protein (OLINK NPX); responders (CR, VGPR, PR; n = 19); itacitinib 200 mg or 300 mg QD with corticosteroids; day 28 vs baseline
Summary of the method: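 Longitudinal comparison, day 28 versus baseline, with steroid-naive (N=10) and steroid-refractory (N=18) patients combined. Proteins measured by OLINK proximity extension, log2 normalized protein expression. Differences tested by t tests, ANOVA, Pearson correlation, P<0.05 significant.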

B1: TRANCE (protein, UniProt O14788 140-317, looked up)
Tumor necrosis factor ligand …: IRAEKAMVDGSWLDLAKRSKLEAQPFAHLTINATDIPSGSHKVSLSSWYHDRGWAKISNMTFSNGKLIVNQDGFYYLYANICFRHHETSGDLATEYLQLMVYVTKTSIKIPSSHTLMKGGSTKYWSGNSEFHFYSINVGGFFKLRSGEEISIEVSNPSLLDPDQDATYFGAFKVRDID
In the case of B1, the “Fold Change, Decreased Expression from Baseline to Day 28” value (shortened to “Fold Change, Decreased Expression”) is reported as −1.4034.

B2: NADK (protein, UniProt O95544 1-446, looked up)
NAD kinase: MEMEQEKMTMNKELSPDAAAYCCSACHGDETWSYNHPIRGRAKSRSLSASPALGSTKEFRRTRSLHGPCPVTTFGPKACVLQNPQTIMHIQDPASQRLTWNKSPKSVLVIKKMRDASLLQPFKELCTHLMEENMIVYVEKKVLEDPAIASDESFGAVKKKFCTFREDYDDISNQIDFIICLGGDGTLLYASSLFQGSVPPVMAFHLGSLGFLTPFSFENFQSQVTQVIEGNAAVVLRSRLKVRVVKELRGKKTAVHNGLGENGSQAAGLDMDVGKQAMQYQVLNEVVIDRGPSSYLSNVDVYLDGHLITTVQGDGVIVSTPTGSTAYAAAAGASMIHPNVPAIMITPICPHSLSFRPIVVPAGVELKIMLSPEARNTAWVSFDGRKRQEIRHGDSISITTSCYPLPSICVRDPVSDWFESLAQCLHWNVRKKQAHFEEEEEEEEEG
In the case of B2, the “Fold Change, Decreased Expression” value is reported as −1.3493.

B3: BANK1 (protein, UniProt Q8NDB2 1-785, looked up)
B-cell scaffold protein with …: MLPAAPGKGLGSPDPAPCGPAPPGNTKDIIMIYEEDAEEWALYLTEVFLHVVKREAILLYRLENFSFRHLELLNLTSYKCKLLILSNSLLRDLTPKKCQFLEKILHSPKSVVTLLCGVKSSDQLYELLNISQSRWEISTEQEPEDYISVIQSIIFKDSEDYFEVNIPTDLRAKHSGEISERKEIEELSEASRNTIPLAVVLPTEIPCENPGEIFIILRDEVIGDTVEVEFTSSNKRIRTRPALWNKKVWCMKALEFPAGSVHVNVYCDGIVKATTKIKYYPTAKAKECLFRMADSGESLCQNSIEELDGVLTSIFKHEIPYYEFQSLQTEICSQNKYTHFKELPTLLHCAAKFGLKNLAIHLLQCSGATWASKMKNMEGSDPAHIAERHGHKELKKIFEDFSIQEIDINNEQENDYEEDIASFSTYIPSTQNPAFHHESRKTYGQSADGAEANEMEGEGKQNGSGMETKHSPLEVGSESSEDQYDDLYVFIPGADPENNSQEPLMSSRPPLPPPRPVANAFQLERPHFTLPGTMVEGQMERSQNWGHPGVRQETGDEPKGEKEKKEEEKEQEEEEDPYTFAEIDDSEYDMILANLSIKKKTGSRSFIINRPPAPTPRPTSIPPKEETTPYIAQVFQQKTARRQSDDDKFCGLPKKQDRARIESPAFSTLRGCLTDGQEELILLQEKVKNGKMSMDEALEKFKHWQMGKSGLEMIQQEKLRQLRDCIIGKRPEEENVYNKLTIVHHPGGKETAHNENKFYNVHFSNKLPARPQVEKEFGFCCKKDH
With B3 the “Fold Change, Decreased Expression” value was −2.0084.

B4: AMIGO2 (protein, UniProt Q86SJ2 40-522, looked up)
Amphoterin-induced protein 2: VCPTACICATDIVSCTNKNLSKVPGNLFRLIKRLDLSYNRIGLLDSEWIPVSFAKLNTLILRHNNITSISTGSFSTTPNLKCLDLSSNKLKTVKNAVFQELKVLEVLLLYNNHISYLDPSAFGGLSQLQKLYLSGNFLTQFPMDLYVGRFKLAELMFLDVSYNRIPSMPMHHINLVPGKQLRGIYLHGNPFVCDCSLYSLLVFWYRRHFSSVMDFKNDYTCRLWSDSRHSRQVLLLQDSFMNCSDSIINGSFRALGFIHEAQVGERLMVHCDSKTGNANTDFIWVGPDNRLLEPDKEMENFYVFHNGSLVIESPRFEDAGVYSCIAMNKQRLLNETVDVTINVSNFTVSRSHAHEAFNTAFTTLAACVASIVLVLLYLYLTPCPCKCKTKRQKNMLHQSNAHSSILSPGPASDASADERKAGAGKRVVFLEPLKDTAAGQNGKVRLFPSEAVIAEGILKSTRGKSDSDSVNSVFSDTPFVAST
For B4, the “Fold Change, Decreased Expression” value was −1.1962.

B5: ZBTB17 (protein, UniProt Q13105 1-803, looked up)
Zinc finger and BTB …: MDFPQHSQHVLEQLNQQRQLGLLCDCTFVVDGVHFKAHKAVLAACSEYFKMLFVDQKDVVHLDISNAAGLGQVLEFMYTAKLSLSPENVDDVLAVATFLQMQDIITACHALKSLAEPATSPGGNAEALATEGGDKRAKEEKVATSTLSRLEQAGRSTPIGPSRDLKEERGGQAQSAASGAEQTEKADAPREPPPVELKPDPTSGMAAAEAEAALSESSEQEMEVEPARKGEEEQKEQEEQEEEGAGPAEVKEEGSQLENGEAPEENENEESAGTDSGQELGSEARGLRSGTYGDRTESKAYGSVIHKCEDCGKEFTHTGNFKRHIRIHTGEKPFSCRECSKAFSDPAACKAHEKTHSPLKPYGCEECGKSYRLISLLNLHKKRHSGEARYRCEDCGKLFTTSGNLKRHQLVHSGEKPYQCDYCGRSFSDPTSKMRHLETHDTDKEHKCPHCDKKFNQVGNLKAHLKIHIADGPLKCRECGKQFTTSGNLKRHLRIHSGEKPYVCIHCQRQFADPGALQRHVRIHTGEKPCQCVMCGKAFTQASSLIAHVRQHTGEKPYVCERCGKRFVQSSQLANHIRHHDNIRPHKCSVCSKAFVNVGDLSKHIIIHTGEKPYLCDKCGRGFNRVDNLRSHVKTVHQGKAGIKILEPEEGSEVSVVTVDDMVTLATEALAATAVTQLTVVPVGAAVTADETEVLKAEISKAVKQVQEEDPNTHILYACDSCGDKFLDANSLAQHVRIHTAQALVMFQTDADFYQQYGPGGTWPAGQVLQAGELVFRPRDGAEGQPALAETSPTAPECPPPAE
B5 was tested, and the “Fold Change, Decreased Expression” value was −1.2333.

B6: Flt3L (protein, UniProt P49771 27-235, looked up)
Fms-related tyrosine kinase 3 …: TQDCSFQHSPISSDFAVKIRELSDYLLQDYPVTVASNLQDEELCGGLWRLVLAQRWMERLKTVAGSKMQGLLERVNTEIHFVTKCAFQPPPSCLRFVQTNISRLLQETSEQLVALKPWITRQNFSRCLELQCQPDSSTLPPPWSPRPLEATAPTAPQPPLLLLLLLPVGLLLLAAAWCLHWQRTRRRTPRPGEQVPPVPSPQDLLLVEH
In the case of B6, the “Fold Change, Increased Expression from Baseline to Day 28” value is reported as 2.3423.

B7: FES (protein, UniProt P07332 1-822, looked up)
Tyrosine-protein kinase …: MGFSSELCSPQGHGVLQQMQEAELRLLEGMRKWMAQRVKSDREYAGLLHHMSLQDSGGQSRAISPDSPISQSWAEITSQTEGLSRLLRQHAEDLNSGPLSKLSLLIRERQQLRKTYSEQWQQLQQELTKTHSQDIEKLKSQYRALARDSAQAKRKYQEASKDKDRDKAKDKYVRSLWKLFAHHNRYVLGVRAAQLHHQHHHQLLLPGLLRSLQDLHEEMACILKEILQEYLEISSLVQDEVVAIHREMAAAAARIQPEAEYQGFLRQYGSAPDVPPCVTFDESLLEEGEPLEPGELQLNELTVESVQHTLTSVTDELAVATEMVFRRQEMVTQLQQELRNEEENTHPRERVQLLGKRQVLQEALQGLQVALCSQAKLQAQQELLQTKLEHLGPGEPPPVLLLQDDRHSTSSSEQEREGGRTPTLEILKSHISGIFRPKFSLPPPLQLIPEVQKPLHEQLWYHGAIPRAEVAELLVHSGDFLVRESQGKQEYVLSVLWDGLPRHFIIQSLDNLYRLEGEGFPSIPLLIDHLLSTQQPLTKKSGVVLHRAVPKDKWVLNHEDLVLGEQIGRGNFGEVFSGRLRADNTLVAVKSCRETLPPDLKAKFLQEARILKQYSHPNIVRLIGVCTQKQPIYIVMELVQGGDFLTFLRTEGARLRVKTLLQMVGDAAAGMEYLESKCCIHRDLAARNCLVTEKNVLKISDFGMSREEADGVYAASGGLRQVPVKWTAPEALNYGRYSSESDVWSFGILLWETFSLGASPYPNLSNQQTREFVEKGGRLPCPELCPDAVFRLMEQCWAYEPGQRPSFSTIYQELQSIRKRHR
For B7, the “Fold Change, Decreased Expression” value was −1.4934.

B8: CD79B (protein, UniProt P40259 29-229, looked up)
B-cell antigen receptor …: ARSEDRYRNPKGSACSRIWQSPRFIARKRGFTVKMHCYMNSASGNVSWLWKQEMDENPQQLKLEKGRMEESQNESLATLTIQGIRFEDNGIYFCQQKCNNTSEVYQGCGTELRVMGFSTLAQLKQRNTLKDGIIMIQTLLIILFIIVPIFLLLDKDDSKAGMEEDHTYEGLDIDQTATYEDIVTLRTGEVKWSVGEHPGQE
For B8, the “Fold Change, Decreased Expression” value was −1.2372.
